Blank lines part the entries; values can stand above or below the binder they belong to.
Assays:
[1] = molecular target: the molecule itself; test: SEC; HTRA proteins and their LoopA deletion mutants alone; Superdex 200 Increase 3.2/300; 200 mM NaCl, 20 mM HEPES pH 7.5, 0.25% CHAPS; size against gel filtration standard
[2] = molecular target: T1, HTRA1^PD (human HTRA1 protease domain, D161-K379) (human, UniProt Q92743); test: SEC; HTRA1 proteins mixed with Fab15H6.v4 (1:2 molar ratio, 30 min on ice); Superdex 200 Increase 3.2/300; 200 mM NaCl, 20 mM HEPES pH 7.5, 0.25% CHAPS; size against protein standards; details: both partners purified
T1 construct: human HTRA1 protease domain, D161-K379, 24 kDa; His6 tag is TEV or thrombin cleavable; captured by it in SPR; also called wildtype HTRA1^PD; active HTRA1^PD; source: E. coli, purified (Ni-NTA, SEC); not shown: His6, N-terminal, kept

[3] = molecular target: T2, HTRA1^PD/SA (catalytically inactive S328A mutant of the HTRA1 protease domain) (human, UniProt Q92743, S328A); test: as above; details: both partners purified
T2 construct: human HTRA1 protease domain, D161-K379, with S328A; source: E. coli, purified (Ni-NTA, SEC)

[4] = molecular target: T3, HTRA1^FL/SA (catalytically inactive S328A mutant of full-length HTRA1) (human, UniProt Q92743, S328A); test: as above; details: both partners purified
T3 construct: human HTRA1, Q23-P480, with S328A; source: Trichoplusia ni cells, purified from the medium (Ni-NTA, SEC)

[5] = molecular target: T4, HTRA1 LoopA wildtype peptide (Homo sapiens); test: SPR; Fab15H6.v4 (1000 RU) immobilised on a CM5 chip by amine coupling, synthetic LoopA peptides as analytes, single-cycle kinetics, three-fold dilutions from 10 nM (HTRA1 peptides) or 3 μM (HTRA2, HTRA3, HTRA4 peptides); 25 °C, HBS-EP; details: both partners purified
T4 construct: LoopA of human HTRA1, residues 190-201; also called HTRA1-LoopA peptide; LoopA peptide; source: synthetic peptide (Abclonal for SPR; NeoBiolab for the crystal)
T4 chain: RKLPFSKREVPV

[6] = molecular target: T5, HTRA2 LoopA wildtype peptide (Homo sapiens); test: as above; details: both partners purified
T5 construct: LoopA of human HTRA2, residues 168-179; also called LoopA peptide of HTRA2; source: synthetic peptide (Abclonal)
T5 chain: DRHPFLGREVPI

[7] = molecular target: T6, HTRA3 LoopA wildtype peptide (Homo sapiens); test: as above; details: both partners purified
T6 construct: LoopA of human HTRA3, residues 161-172; also called LoopA peptide of HTRA3; source: synthetic peptide (Abclonal)
T6 chain: LRHPLFGRNVPL

[8] = molecular target: T7, HTRA4 LoopA wildtype peptide (Homo sapiens); test: as above; details: both partners purified
T7 construct: LoopA of human HTRA4, residues 188-199; also called LoopA peptide of HTRA4; source: synthetic peptide (Abclonal)
T7 chain: GRLLHGSRLVPV

[9] = molecular target: T8, HTRA2^PD/PDZ (HTRA2 protease/PDZ domain, A134-E458) (human, UniProt O43464); test: SPR; His6-tagged HTRA proteins (about 200 RU) captured with the His-capture kit on a CM5 chip, Fab15H6.v4 as analyte, single-cycle kinetics, three-fold dilutions from 1 nM or 1 μM; absence of binding verified with 3 μM Fab; Biacore S200, 25 °C, HBS-EP; 1:1 Langmuir model; details: both partners purified
T8 construct: human HTRA2 protease and PDZ domains, A134-E458; also called wildtype HTRA2; source: E. coli, purified (Ni-NTA, SEC); not shown: His6, N-terminal, kept

[10] = molecular target: T9, HTRA3^PD/PDZ (HTRA3 protease/PDZ domain, L130-M453) (Homo sapiens, UniProt P83110); test: as above; details: both partners purified
T9 construct: human HTRA3 protease and PDZ domains, L130-M453; also called wildtype HTRA3; source: E. coli, purified (Ni-NTA, SEC); not shown: His6, N-terminal, kept

[11] = molecular target: T1, HTRA1^PD (human HTRA1 protease domain, …); test: as above; details: both partners purified
[12] = molecular target: T1, HTRA1^PD (human HTRA1 protease domain, …); test: SPR; wildtype His6-tagged HTRA1^PD (about 200 RU) captured with the His-capture kit on a CM5 chip; scFv15H6.v4, Fab15H6.v4 and its mutants as analytes, single-cycle kinetics, three-fold dilutions from 10 nM or 1 μM; absence of binding confirmed up to 3 μM; 25 °C, HBS-EP; details: both partners purified

T9 sequence (P83110 130-453): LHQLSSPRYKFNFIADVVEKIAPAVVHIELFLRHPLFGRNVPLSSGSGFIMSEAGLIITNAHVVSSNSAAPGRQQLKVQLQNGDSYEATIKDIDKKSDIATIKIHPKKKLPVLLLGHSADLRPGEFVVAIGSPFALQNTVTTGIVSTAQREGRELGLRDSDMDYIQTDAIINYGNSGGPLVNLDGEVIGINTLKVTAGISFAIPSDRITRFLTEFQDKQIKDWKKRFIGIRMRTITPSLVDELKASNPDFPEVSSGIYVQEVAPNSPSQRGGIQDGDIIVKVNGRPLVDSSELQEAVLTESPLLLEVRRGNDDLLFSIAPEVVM

B1: HTRA1^PD-ΔLoopA (domain or fragment)
chain: not shown
notes: human HTRA1 protease domain, D161-K379, entire LoopA replaced with the beta hairpin motif NG; also called HTRA1-ΔLoopA; HTRA1^PD-ΔLoop mutant; source: E. coli, purified (Ni-NTA, SEC); not shown: His6, N-terminal, kept
stoichiometry N [1]: 3

B2: HTRA2^PD/PDZ (HTRA2 protease/PDZ domain, A134-E458) (domain or fragment, human, UniProt O43464 134-458, looked up)
chain: AVPSPPPASPRSQYNFIADVVEKTAPAVVYIEILDRHPFLGREVPISNGSGFVVAADGLIVTNAHVVADRRRVRVRLLSGDTYEAVVTAVDPVADIATLRIQTKEPLPTLPLGRSADVRQGEFVVAMGSPFALQNTITSGIVSSAQRPARDLGLPQTNVEYIQTDAAIDFGNSGGPLVNLDGEVIGVNTMKVTAGISFAIPSDRLREFLHRGEKKNSSSGISGSQRRYIGVMMLTLSPSILAELQLREPSFPDVQHGVLIHKVILGSPAHRAGLRPGDVILAIGEQMVQNAEDVYEAVRTQSQLAVQIRRGRETLTLYVTPEVTE
notes: human HTRA2 protease and PDZ domains, A134-E458; also called wildtype HTRA2; source: E. coli, purified (Ni-NTA, SEC); not shown: His6, N-terminal, kept
stoichiometry N [1]: 3

stoichiometry N [2]: 3 Fab per HTRA1 trimer
stoichiometry N [3]: 3 Fab per HTRA1 trimer
stoichiometry N [4]: 3 Fab per HTRA1 trimer
Kd [5]: 0.77 nM
binding result [6]: no binding (tested: 3 μM)
binding result [7]: no binding (tested: 3 μM)
binding result [8]: no binding (tested: 3 μM)
binding result [9]: no binding (tested: 3 μM Fab)
binding result [10]: no binding (tested: 3 μM Fab)
Kd [11]: 0.12 nM
B3: Fab15H6.v4 (Fab, V domains shown)
VH: EVQLVQSGAEVKKPGASVKVSCKASGYKFTDSEMHWVRQAPGQGLEWIGGVDPETEGAAYNQKFKGRATITRDTSTSTAYLELSSLRSEDTAVYYCTRGYDYDYALDYWGQGTLVTVSS
VL: DIQMTQSPSSLSASVGDRVTITCRASSSVEFIHWYQQKPGKAPKPLISATSNLASGVPSRFSGSGSGTDFTLTISSLQPEDFATYYCQQWSSAPWTFGQGTKVEIK
notes: light chain of Fab15H6.v4; also called the Fab; source: expressed in Complete CRAP media with carbenicillin, purified (Protein G, SP Sepharose)

fold affinity loss against Fab15H6.v4 [12]: 2000 fold
B4: Fab15H6.v4 D52A (Fab, V domains shown)
VH: EVQLVQSGAEVKKPGASVKVSCKASGYKFTDSEMHWVRQAPGQGLEWIGGVAPETEGAAYNQKFKGRATITRDTSTSTAYLELSSLRSEDTAVYYCTRGYDYDYALDYWGQGTLVTVSS
VL: DIQMTQSPSSLSASVGDRVTITCRASSSVEFIHWYQQKPGKAPKPLISATSNLASGVPSRFSGSGSGTDFTLTISSLQPEDFATYYCQQWSSAPWTFGQGTKVEIK
notes: as the heavy chain of m1, with D52A; as the light chain of m1

fold affinity loss against Fab15H6.v4 [12]: 200 fold
B5: Fab15H6.v4 Y100A (Fab, V domains shown)
VH: EVQLVQSGAEVKKPGASVKVSCKASGYKFTDSEMHWVRQAPGQGLEWIGGVDPETEGAAYNQKFKGRATITRDTSTSTAYLELSSLRSEDTAVYYCTRGADYDYALDYWGQGTLVTVSS
VL: DIQMTQSPSSLSASVGDRVTITCRASSSVEFIHWYQQKPGKAPKPLISATSNLASGVPSRFSGSGSGTDFTLTISSLQPEDFATYYCQQWSSAPWTFGQGTKVEIK
notes: as the heavy chain of m1, with Y100A; as the light chain of m1

Kd [12]: 9.4 nM
B6: scFv15H6.v4 (single chain Fv version of Fab15H6.v4) (scFv, V domains shown)
VH: EVQLVQSGAEVKKPGASVKVSCKASGYKFTDSEMHWVRQAPGQGLEWIGGVDPETEGAAYNQKFKGRATITRDTSTSTAYLELSSLRSEDTAVYYCTRGYDYDYALDYWGQGTLVTVSS
VL: DIQMTQSPSSLSASVGDRVTITCRASSSVEFIHWYQQKPGKAPKPLISATSNLASGVPSRFSGSGSGTDFTLTISSLQPEDFATYYCQQWSSAPWTFGQGTKVEIK
notes: variable domain of the light chain of m1, D1-K106; (GGGGS)4 linker; variable domain of the heavy chain of m1, E1-S119

binding result [12]: no binding (tested: 3 μM)
B7: Fab15H6.v4 with all eight key paratope residues mutated to alanine (Fab, V domains shown)
VH: EVQLVQSGAEVKKPGASVKVSCKASGYKFAAAEMHWVRQAPGQGLEWIGGVAPETEGAAYNQKFKGRATITRDTSTSTAYLELSSLRSEDAAVYYCTRGAAADYALDYWGQGTLVTVSS
VL: DIQMTQSPSSLSASVGDRVTITCRASSSVEFIHWYQQKPGKAPKPLISATSNLASGVPSRFSGSGSGTDFTLTISSLQPEDFATYYCQQWSSAPWTFGQGTKVEIK
notes: as the heavy chain of m1, with eight paratope residues of the three CDR loops changed to alanine; as the light chain of m1
